# Measurements published in PMC9132996.
# pKd: −log10 of the molar value.
# Test system: PutA (proline utilization A) (Ralstonia solanacearum GMI1000)
# Assay: MST
# Settings: room temperature 30 min, buffer not stated
row,Substance,pKd
1,epsA promoter 336 bp,7.97
2,phcB promoter 327 bp,7.89
3,solI promoter 324 bp,7.90
4,trpEG promoter 291 bp,7.77
